The series in a line: protein stability index of a GFP-peptide fusion (yeast GPS) (PSI 1-4); higher = more stable; sorted into four equal gates, so the index is relative within each strain. The essentials:
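Tiled 17-residue yeast protein peptides were fused downstream of GFP in a plasmid that also expresses Cherry, and the pooled library was carried in yeast. Mid-log cultures in leucine-free medium were sorted into four equal gates by GFP/Cherry fluorescence ratio, and plasmids from each gate were PCR-amplified and Illumina-sequenced, with reads assigned to strains by barcodes. The protein stability index for each peptide was each gate's read frequency times its gate number, summed.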

± gives the uncertainty stated by the source.

On to WLYVYETPNQDATYDSA [RPN6], for which the protein stability index (doa10∆) worked out at 2.62 ± 0.075, the protein stability index (pdr5∆) came out at 2.75 ± 0.067, the protein stability index (san1∆) was 2.67 ± 0.068 and the protein stability index (ubr1∆) was found to be 2.49 ± 0.055.

Take WNLNATKPNVLNDPSLK [SIN4]: the protein stability index runs as follows: (doa10∆) 3 ± 0.088; (pdr5∆) 2.94 ± 0.071; (san1∆) 3 ± 0.054; (ubr1∆) 3.26 ± 0.04.

Turning to WNSLMYALQSVKLPRAF [RRP43], the protein stability index reads like this: (doa10∆) 1.31 ± 0.066; (pdr5∆) 1.34 ± 0.083; (san1∆) 1.2 ± 0.12; (ubr1∆) 1.29 ± 0.051.

Turning to WNWAKQSLLSLYFEIIH [FAS2], the protein stability index is, setting by setting: (doa10∆) 1.7 ± 0.06; (pdr5∆) 1.46 ± 0.057; (san1∆) 1.76 ± 0.15; (ubr1∆) 1.4 ± 0.072.

Regarding WRSKRIEQLFPVRPVRV [RPC53], the protein stability index came to 3.25 ± 0.14 (doa10∆), 3.11 ± 0.087 (pdr5∆), 3.21 ± 0.071 (san1∆) and 3.08 ± 0.069 (ubr1∆).

On to WSFEEVEVKDASLVDYV [RPS5], for which the protein stability index by setting is: (doa10∆) 1.32 ± 0.089; (pdr5∆) 1.14 ± 0.06; (san1∆) 1.22 ± 0.14; (ubr1∆) 1.17 ± 0.056.

As for WSSLLNEGLVEYIDAEE [RPB2], the protein stability index was found to be 2.84 ± 0.21 (doa10∆), 3.44 ± 0.17 (pdr5∆) and 2.97 ± 0.16 (ubr1∆).

Sequence WVNMLLISSSGPIKTPV [FAS2] gave a protein stability index (doa10∆) of 1.87 ± 0.059, a protein stability index (pdr5∆) of 1.32 ± 0.051, a protein stability index (san1∆) of 1.23 ± 0.082 and a protein stability index (ubr1∆) of 1.53 ± 0.047.

Take WVTEVLGNDIPHDLIIG [BRR2]: the protein stability index is 2.17 ± 0.042 (doa10∆), 2.95 ± 0.056 (pdr5∆), 2.29 ± 0.063 (san1∆) and 2.89 ± 0.046 (ubr1∆).

In the case of YALQSVKLPRAFIDERA [RRP43], the protein stability index reads like this: (pdr5∆) 1.33 ± 0.17; (san1∆) 1.3 ± 0.24; (ubr1∆) 1.33 ± 0.075.

On to YASKAVPHYNRLDSYKV [RPL25], for which the protein stability index is 2.11 ± 0.14 (doa10∆), 2.7 ± 0.1 (pdr5∆), 2.34 ± 0.12 (san1∆) and 1.47 ± 0.11 (ubr1∆).

With YDDEQNTSAQHVESDKI [IRR1], the protein stability index came to 3.25 ± 0.094 (doa10∆), 3.04 ± 0.053 (pdr5∆), 3.06 ± 0.065 (san1∆) and 3.27 ± 0.057 (ubr1∆).

As to YDEVKKHWGGGILGNKA [RPL8A], the protein stability index by setting is: (doa10∆) 3.16 ± 0.11; (pdr5∆) 3.4 ± 0.089; (san1∆) 3.44 ± 0.06; (ubr1∆) 3.23 ± 0.061.

YDLVDNKGAKAEDVALN [NAS6]: the protein stability index reads like this: (doa10∆) 2.8 ± 0.14; (pdr5∆) 3.39 ± 0.27; (san1∆) 2.87 ± 0.12; (ubr1∆) 3.07 ± 0.071.

As for YDNIDIQRGRILPTDGS [RPB7], the protein stability index is, setting by setting: (doa10∆) 3.05 ± 0.28; (pdr5∆) 3.06 ± 0.18; (ubr1∆) 2.94 ± 0.24.

For YDSRGVGEMKLLKKKDD [YLR335W/NUP2], the protein stability index was found to be 2.51 ± 0.098 (doa10∆), 2.64 ± 0.17 (pdr5∆), 2.52 ± 0.1 (san1∆) and 2.6 ± 0.17 (ubr1∆).

With YDSRPLEEDSKKVNGTS [PRP8], the protein stability index runs as follows: (doa10∆) 2.99 ± 0.23; (pdr5∆) 3.53 ± 0.17; (san1∆) 3.21 ± 0.098; (ubr1∆) 2.94 ± 0.11.

YEAGASHGNPVVDFLKR [FAS1]: the protein stability index was 3.17 ± 0.09 (doa10∆), 3.13 ± 0.099 (pdr5∆), 3.35 ± 0.07 (san1∆) and 3.25 ± 0.044 (ubr1∆).

Take YEDEELSRAEYDSDSDS [LIN1]: the protein stability index is 3.19 ± 0.1 (doa10∆), 3.33 ± 0.087 (pdr5∆), 3.08 ± 0.057 (san1∆) and 3.23 ± 0.055 (ubr1∆).

Regarding YEKNFEATLESKLKEEE [ESC2], the protein stability index was 3.09 ± 0.12 (doa10∆), 3.13 ± 0.17 (pdr5∆), 3.03 ± 0.071 (san1∆) and 3.18 ± 0.13 (ubr1∆).

Consider YENIPIYATFLNESDCL [YDL116W/NUP84], for which the protein stability index is, setting by setting: (doa10∆) 2.16 ± 0.098; (pdr5∆) 2.54 ± 0.15; (san1∆) 2.15 ± 0.15; (ubr1∆) 2.62 ± 0.1.

Turning to YFLVLSPYGNLQNDLIH [RPN5], the protein stability index (doa10∆) came out at 1.92 ± 0.091, the protein stability index (pdr5∆) was determined as 2.42 ± 0.1, the protein stability index (san1∆) was 2.64 ± 0.089 and the protein stability index (ubr1∆) is 2.67 ± 0.14.

With YFSVTTARRNVSGDAAA [SWI3], the protein stability index was found to be 1.9 ± 0.059 (doa10∆), 2.23 ± 0.063 (pdr5∆), 2.33 ± 0.08 (san1∆) and 1.88 ± 0.047 (ubr1∆).

Regarding YGEYPPTKLLVSEVAKI [PRE8], the protein stability index stood at 2.53 ± 0.084 (doa10∆), 2.81 ± 0.13 (pdr5∆), 2.67 ± 0.12 (san1∆) and 2.93 ± 0.078 (ubr1∆).

For the sequence YGFEDESAPITAEDSWA [RPB2], the protein stability index runs as follows: (doa10∆) 3.06 ± 0.058; (pdr5∆) 3.16 ± 0.055; (san1∆) 3.35 ± 0.042; (ubr1∆) 3.17 ± 0.053.

For YGFKQEIFDVTSNGLKK [FAS1], the protein stability index worked out at 2.98 ± 0.12 (doa10∆), 3.3 ± 0.083 (pdr5∆), 2.61 ± 0.085 (san1∆) and 2.89 ± 0.047 (ubr1∆).

Values taken from the supplement of paper PMC9732359.
